Reference: US8290713 (LONZA BIOLOGICS, dated 2012)
Non-standard residues stand in square brackets, D forms with d.

Biological target: α-synuclein (UniProt P37840 1-140)
Test: cell-based or functional assay
Further: test concentration or dose not given here.

% decrease in ThT fluorescence | % decrease in rate of aggregation | % increase in Lag phase | Binder
30.7% | 29.7% | 16.1% | Ac-[dH][dH][dT][dL][dV][dV]-NH2 (SMILES CC(=O)N[C@H](Cc1c[nH]cn1)C(=O)N[C@H](Cc1c[nH]cn1)C(=O)N[C@@H](C(=O)N[C@H](CC(C)C)C(=O)N[C@@H](C(=O)N[C@@H](C(N)=O)C(C)C)C(C)C)[C@H](C)O) [ZP-0186]
53.5% | 54.5% | -28.8% | Ac-[dQ][dY][dK][dV][dL][dI]-NH2 (SMILES CC[C@@H](C)[C@@H](NC(=O)[C@@H](CC(C)C)NC(=O)[C@H](NC(=O)[C@@H](CCCCN)NC(=O)[C@@H](Cc1ccc(O)cc1)NC(=O)[C@@H](CCC(N)=O)NC(C)=O)C(C)C)C(N)=O) [ZP-0202]
16.6% | -11.9% | 30.6% | Ac-[dQ][dY][dS][dP][dL][dI]-NH2 (SMILES CC[C@@H](C)[C@@H](NC(=O)[C@@H](CC(C)C)NC(=O)[C@H]1CCCN1C(=O)[C@@H](CO)NC(=O)[C@@H](Cc1ccc(O)cc1)NC(=O)[C@@H](CCC(N)=O)NC(C)=O)C(N)=O) [ZP-0205]
11.6% | 7.7% | 38.8% | Ac-[dH][dH][dT][dT][dV][dY]-NH2 (SMILES CC(=O)N[C@H](Cc1c[nH]cn1)C(=O)N[C@H](Cc1c[nH]cn1)C(=O)N[C@@H](C(=O)N[C@@H](C(=O)N[C@@H](C(=O)N[C@H](Cc1ccc(O)cc1)C(N)=O)C(C)C)[C@H](C)O)[C@H](C)O) [ZP-0194]
1.4% | -5.6% | 23.6% | Ac-[dQ][dY][dS][dV][dP][dI]-NH2 (SMILES CC[C@@H](C)[C@@H](NC(=O)[C@H]1CCCN1C(=O)[C@H](NC(=O)[C@@H](CO)NC(=O)[C@@H](Cc1ccc(O)cc1)NC(=O)[C@@H](CCC(N)=O)NC(C)=O)C(C)C)C(N)=O) [ZP-0204]
19.8% | 18.4% | 30.3% | Ac-[dH][dH][dT][dV][dV][dA]-NH2 (SMILES CC(=O)N[C@H](Cc1c[nH]cn1)C(=O)N[C@H](Cc1c[nH]cn1)C(=O)N[C@@H](C(=O)N[C@@H](C(=O)N[C@@H](C(=O)N[C@H](C)C(N)=O)C(C)C)C(C)C)[C@H](C)O) [ZP-0180]
8.7% | -15.8% | 31.4% | Ac-[dH][dH][dT][dE][dV][dY]-NH2 (SMILES CC(=O)N[C@H](Cc1c[nH]cn1)C(=O)N[C@H](Cc1c[nH]cn1)C(=O)N[C@@H](C(=O)N[C@H](CCC(=O)O)C(=O)N[C@@H](C(=O)N[C@H](Cc1ccc(O)cc1)C(N)=O)C(C)C)[C@H](C)O) [ZP-0193]
5.5% | 3.6% | 29.7% | Ac-[dQ][dP][dS][dV][dL][dI]-NH2 (SMILES CC[C@@H](C)[C@@H](NC(=O)[C@@H](CC(C)C)NC(=O)[C@H](NC(=O)[C@@H](CO)NC(=O)[C@H]1CCCN1C(=O)[C@@H](CCC(N)=O)NC(C)=O)C(C)C)C(N)=O) [ZP-0207]
3.3% | 8.4% | 25.9% | Ac-[dQ][dY][dP][dV][dL][dI]-NH2 (SMILES CC[C@@H](C)[C@@H](NC(=O)[C@@H](CC(C)C)NC(=O)[C@H](NC(=O)[C@H]1CCCN1C(=O)[C@@H](Cc1ccc(O)cc1)NC(=O)[C@@H](CCC(N)=O)NC(C)=O)C(C)C)C(N)=O) [ZP-0206]
0.6% | -0.6% | 30.4% | Ac-[dH][dH][dT][dI][dV][dK]-NH2 (SMILES CC[C@@H](C)[C@@H](NC(=O)[C@H](NC(=O)[C@@H](Cc1c[nH]cn1)NC(=O)[C@@H](Cc1c[nH]cn1)NC(C)=O)[C@H](C)O)C(=O)N[C@@H](C(=O)N[C@H](CCCCN)C(N)=O)C(C)C) [ZP-0179]
22.8% | -1.2% | 29.4% | Ac-[dH][dH][dT][dL][dV][dA]-NH2 (SMILES CC(=O)N[C@H](Cc1c[nH]cn1)C(=O)N[C@H](Cc1c[nH]cn1)C(=O)N[C@@H](C(=O)N[C@H](CC(C)C)C(=O)N[C@@H](C(=O)N[C@H](C)C(N)=O)C(C)C)[C@H](C)O) [ZP-0181]

The remaining lines, values behind:

Binder | % decrease in ThT fluorescence | % decrease in rate of aggregation | % increase in Lag phase
Ac-[dH][dH][dT][dI][dV][dV]-NH2 (SMILES CC[C@@H](C)[C@@H](NC(=O)[C@H](NC(=O)[C@@H](Cc1c[nH]cn1)NC(=O)[C@@H](Cc1c[nH]cn1)NC(C)=O)[C@H](C)O)C(=O)N[C@@H](C(=O)N[C@@H](C(N)=O)C(C)C)C(C)C) [ZP-0175] | 21.9% | 16.8% | 89.7%
Ac-[dH][dH][dV][dE][dV][dA]-NH2 (SMILES CC(=O)N[C@H](Cc1c[nH]cn1)C(=O)N[C@H](Cc1c[nH]cn1)C(=O)N[C@@H](C(=O)N[C@H](CCC(=O)O)C(=O)N[C@@H](C(=O)N[C@H](C)C(N)=O)C(C)C)C(C)C) [ZP-0162] | 6.3% | 6.6% | 33.4%
Ac-[dH][dH][dV][dI][dV][dW]-NH2 (SMILES CC[C@@H](C)[C@@H](NC(=O)[C@H](NC(=O)[C@@H](Cc1c[nH]cn1)NC(=O)[C@@H](Cc1c[nH]cn1)NC(C)=O)C(C)C)C(=O)N[C@@H](C(=O)N[C@H](Cc1c[nH]c2ccccc12)C(N)=O)C(C)C) [ZP-0172] | -1.7% | 6.9% | 28.1%
Ac-[dH][dH][dV][dK][dV][dA]-NH2 (SMILES CC(=O)N[C@H](Cc1c[nH]cn1)C(=O)N[C@H](Cc1c[nH]cn1)C(=O)N[C@@H](C(=O)N[C@H](CCCCN)C(=O)N[C@@H](C(=O)N[C@H](C)C(N)=O)C(C)C)C(C)C) [ZP-0161] | -5.9% | 2.3% | 19.7%
Ac-[dH][dH][dV][dV][dV][dA]-NH2 (SMILES CC(=O)N[C@H](Cc1c[nH]cn1)C(=O)N[C@H](Cc1c[nH]cn1)C(=O)N[C@@H](C(=O)N[C@@H](C(=O)N[C@@H](C(=O)N[C@H](C)C(N)=O)C(C)C)C(C)C)C(C)C) [ZP-0159] | 19.8% | 18.6% | 36.6%
Ac-[dH][dH][dV][dI][dV][dP]-NH2 (SMILES CC[C@@H](C)[C@@H](NC(=O)[C@H](NC(=O)[C@@H](Cc1c[nH]cn1)NC(=O)[C@@H](Cc1c[nH]cn1)NC(C)=O)C(C)C)C(=O)N[C@@H](C(=O)N1CCC[C@@H]1C(N)=O)C(C)C) [ZP-0168] | -8.6% | -5.4% | 29.8%
Ac-[dH][dH][dV][dL][dV][dA]-NH2 (SMILES CC(=O)N[C@H](Cc1c[nH]cn1)C(=O)N[C@H](Cc1c[nH]cn1)C(=O)N[C@@H](C(=O)N[C@H](CC(C)C)C(=O)N[C@@H](C(=O)N[C@H](C)C(N)=O)C(C)C)C(C)C) [ZP-0160] | 8.8% | 10.5% | 36.5%
Ac-[dH][dH][dV][dI][dV][dT]-NH2 (SMILES CC[C@@H](C)[C@@H](NC(=O)[C@H](NC(=O)[C@@H](Cc1c[nH]cn1)NC(=O)[C@@H](Cc1c[nH]cn1)NC(C)=O)C(C)C)C(=O)N[C@@H](C(=O)N[C@@H](C(N)=O)[C@H](C)O)C(C)C) [ZP-0170] | 24.5% | 29.3% | 29.4%
Ac-[dH][dH][dV][dI][dV][dA]-NH2 (SMILES CC[C@@H](C)[C@@H](NC(=O)[C@H](NC(=O)[C@@H](Cc1c[nH]cn1)NC(=O)[C@@H](Cc1c[nH]cn1)NC(C)=O)C(C)C)C(=O)N[C@@H](C(=O)N[C@H](C)C(N)=O)C(C)C) [ZP-0158] | 15.1% | 18.4% | 32.5%
Ac-[dH][dH][dV][dI][dV][dY]-NH2 (SMILES CC[C@@H](C)[C@@H](NC(=O)[C@H](NC(=O)[C@@H](Cc1c[nH]cn1)NC(=O)[C@@H](Cc1c[nH]cn1)NC(C)=O)C(C)C)C(=O)N[C@@H](C(=O)N[C@H](Cc1ccc(O)cc1)C(N)=O)C(C)C) [ZP-0171] | 13.9% | 13.2% | 43.6%
Ac-[dH][dH][dV][dI][dV][dV]-NH2 (SMILES CC[C@@H](C)[C@@H](NC(=O)[C@H](NC(=O)[C@@H](Cc1c[nH]cn1)NC(=O)[C@@H](Cc1c[nH]cn1)NC(C)=O)C(C)C)C(=O)N[C@@H](C(=O)N[C@@H](C(N)=O)C(C)C)C(C)C) [ZP-0169] | -0.5% | -13.3% | 26.1%
